According to patent US20240206509A1 (CLARA FOODS, published 2024):

Molecular target: bovine trypsin (bovine, UniProt P00760 24-246)
Assay: cell-based or functional assay

bovine trypsin, sequence (P00760 24-246): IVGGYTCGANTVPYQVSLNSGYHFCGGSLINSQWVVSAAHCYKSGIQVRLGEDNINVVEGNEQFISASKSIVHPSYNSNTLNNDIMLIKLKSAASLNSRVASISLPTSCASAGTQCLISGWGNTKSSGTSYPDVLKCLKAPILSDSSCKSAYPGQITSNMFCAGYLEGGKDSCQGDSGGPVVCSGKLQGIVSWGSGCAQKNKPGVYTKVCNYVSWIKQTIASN

B1: native chicken ovomucoid (nOVD) (other)
chain: AEVDCSRFPNATDKEGKDVLVCNKDLRPICGTDGVTYTNDCLLCAYSIEFGTNISKEHDGECKETVPMNCSSYANTTSEDGKVMVLCNRAFNPVCGTDGVTYDNECLLCAHKVEQGASVDKRHDGGCRKELAAVSVDCSEYPKPDCTAEDRPLCGSDNKTYGNKCNFCNAVVESNGTLTLSHFGKC
modifications: complex branched N-linked glycosylation (that includes mannose), as in chicken egg white
  Trypsin inhibition activity: 13700 TIU/g
